One sequence from patent US20200255836 can be followed below.

pKd: −log10 of the molar value.

This data set has as its target Cas9 (His-Cas9) (Streptococcus pyogenes) (UniProt Q99ZW2). Put plainly: SPR. To be noted: Cas9 without guide; 20 mM Tris pH 8.0, 150 mM NaCl, 1 mM MgCl2.

Sequence of Cas9 (His-Cas9) (Streptococcus pyogenes) (Q99ZW2 whole entry): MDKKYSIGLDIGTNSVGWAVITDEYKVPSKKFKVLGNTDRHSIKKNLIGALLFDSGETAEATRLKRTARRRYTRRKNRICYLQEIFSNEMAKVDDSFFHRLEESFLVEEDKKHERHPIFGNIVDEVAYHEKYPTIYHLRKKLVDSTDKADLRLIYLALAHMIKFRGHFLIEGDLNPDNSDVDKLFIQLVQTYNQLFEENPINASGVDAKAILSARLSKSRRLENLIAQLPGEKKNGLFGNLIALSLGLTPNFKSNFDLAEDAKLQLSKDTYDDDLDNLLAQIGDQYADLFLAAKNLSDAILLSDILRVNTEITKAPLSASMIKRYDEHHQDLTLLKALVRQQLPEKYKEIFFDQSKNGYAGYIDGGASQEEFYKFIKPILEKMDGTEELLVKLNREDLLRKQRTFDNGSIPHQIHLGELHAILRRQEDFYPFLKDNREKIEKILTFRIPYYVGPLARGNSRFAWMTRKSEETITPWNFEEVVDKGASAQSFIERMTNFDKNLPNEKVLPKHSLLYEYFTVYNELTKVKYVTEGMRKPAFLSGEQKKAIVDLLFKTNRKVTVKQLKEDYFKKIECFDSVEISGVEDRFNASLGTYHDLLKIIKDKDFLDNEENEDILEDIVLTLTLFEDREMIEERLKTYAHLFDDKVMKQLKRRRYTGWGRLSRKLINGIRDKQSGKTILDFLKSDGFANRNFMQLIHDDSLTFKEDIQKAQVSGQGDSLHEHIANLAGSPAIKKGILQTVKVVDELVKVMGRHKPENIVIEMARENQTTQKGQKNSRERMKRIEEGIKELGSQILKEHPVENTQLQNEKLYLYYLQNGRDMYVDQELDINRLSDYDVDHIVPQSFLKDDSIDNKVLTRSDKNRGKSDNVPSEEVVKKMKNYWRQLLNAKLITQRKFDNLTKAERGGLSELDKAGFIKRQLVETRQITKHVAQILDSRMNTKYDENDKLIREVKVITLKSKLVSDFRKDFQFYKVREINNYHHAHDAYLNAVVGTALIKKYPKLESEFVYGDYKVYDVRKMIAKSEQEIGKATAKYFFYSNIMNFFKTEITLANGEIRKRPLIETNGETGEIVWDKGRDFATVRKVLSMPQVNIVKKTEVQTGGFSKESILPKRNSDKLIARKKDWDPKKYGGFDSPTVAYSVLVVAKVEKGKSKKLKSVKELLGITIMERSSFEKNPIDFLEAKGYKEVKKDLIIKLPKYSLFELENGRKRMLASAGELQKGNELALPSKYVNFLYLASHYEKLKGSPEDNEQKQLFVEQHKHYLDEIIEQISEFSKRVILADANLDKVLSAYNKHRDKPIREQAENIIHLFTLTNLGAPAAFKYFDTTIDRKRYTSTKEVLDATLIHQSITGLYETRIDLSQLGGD

In turn, “GAGGCTCTCACATCGGTAACGGTGTGAGAGCCTC [Tetra]” showed a pKd of 5.06.

Usually pKd stands for −log10 of the Kd, conventionally taken in molar units. A lower pKd goes with a large Kd.
